# Assay results published in patent US20220372138A1 (IOMX THERAPEUTICS, published 2022).
# B1: D-114 (IgG format) (antibody, V domains shown)
# VH: EVQLLESGGGLVQPGGSLRLSCAASGFTFQFSALSWVRQAPGKGLEWVSAISYGGGSKYYADSVKGRFTISRDNSKNTLYLQMNSLRAEDTAVYYCARDSRDAYGVAFDLWGQGTMVTVSS
# VL: ASVLTQPPSVSAAPGQKVTISCSGSSSNIGNNYVSWYQQLPGTAPKLLIYDNNKRPSGIPDRFSGSKSGTSATLGITGLQAEDEADYYCLSYKLSPGAYVFGGGTKLTVL
# B2: D-114 (Fab, KinExA constant binding partner) (Fab, V domains shown)
# VH: B1 VH
# VL: B1 VL
# notes: Fab
# B3: D-222 (IgG format) (antibody, V domains shown)
# VH: EVQLVESGGGLVKPGGSLRLSCAASGFTFSHAWISWVRQAPGKGLEWVGQIKGGPGSGGTSYAEPVKGRFTISRDDSKNTLYLQMNSLKTEDTAVYYCARLGIYSGFDYWGQGTLVTVSS
# VL: SYELTQPPSVSVSPGQTASITCSGDKLGDKYASWYQQKPGQSPVLVIYQDSKRPSGIPERFSGSNSGNTATLTISGTQAEDEADYYCHTYSHRPEIVVFGGGTKLTVL
# B4: D-222 (Fab, KinExA constant binding partner) (Fab, V domains shown)
# VH: B3 VH
# VL: B3 VL
# notes: Fab
# Experiments:
# [1] = target: T1, murine IGSF11 expressed on cells (mouse, UniProt P0C673 23-428); test: IgG FACS MC38-wt; MC38-wt cells (murine line, not transfected)
# T1 construct: MC38-IGSF11, CT26-IGSF11, MC38-wt (naturally expresses murine IGSF11)
# T1 sequence: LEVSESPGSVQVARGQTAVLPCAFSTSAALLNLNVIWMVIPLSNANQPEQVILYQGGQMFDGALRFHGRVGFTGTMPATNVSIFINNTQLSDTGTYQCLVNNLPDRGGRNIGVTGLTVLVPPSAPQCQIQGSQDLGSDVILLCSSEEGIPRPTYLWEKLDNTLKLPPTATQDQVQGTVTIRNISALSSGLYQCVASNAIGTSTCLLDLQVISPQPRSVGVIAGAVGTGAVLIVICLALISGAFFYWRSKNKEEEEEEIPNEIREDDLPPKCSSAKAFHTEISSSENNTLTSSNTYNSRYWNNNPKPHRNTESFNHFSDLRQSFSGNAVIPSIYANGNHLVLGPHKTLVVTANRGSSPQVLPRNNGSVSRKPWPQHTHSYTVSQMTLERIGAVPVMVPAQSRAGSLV
# From the text: (§1) Unbound antibodies were removed by washing the cells three time with FACS buffer. Bound antibodies were detected with a mouse anti-human IgG antibody conjugated with AlexaFluor647.
# [2] = target: T2, extracellular domain (ECD) of human IGSF11 (VSIG3), recombinant (human, UniProt Q5DX21 23-241); test: BLI: biotinylated IGSF11 on streptavidin sensor, ABP bound for 600 s, then VISTA.COMP; VISTA response normalised to that without antibody
# T2 construct: biotinylated where captured on streptavidin; tags of the reagent not always stated; also called IGSF11 (ECD domain); ECD-IGSF11
# T2 sequence: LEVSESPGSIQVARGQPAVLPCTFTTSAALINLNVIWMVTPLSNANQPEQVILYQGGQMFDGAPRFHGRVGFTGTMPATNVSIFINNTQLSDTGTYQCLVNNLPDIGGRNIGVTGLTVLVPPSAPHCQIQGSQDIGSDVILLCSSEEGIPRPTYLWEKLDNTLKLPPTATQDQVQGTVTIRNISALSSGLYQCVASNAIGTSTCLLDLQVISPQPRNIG
# From the text: Briefly, biotinylated IGSF11 was loaded on an optical biosensor via a streptavidin surface. The IGSF11-loaded biosensor was dipped into the samples with different concentrations of anti-IGSF11 ABP, and ABPs were bound for 600s.
# [3] = target: T3, human IGSF11 (VSIG3) expressed on cells (human, UniProt Q5DX21 23-431); test: IgG FACS Colo741
# T3 sequence: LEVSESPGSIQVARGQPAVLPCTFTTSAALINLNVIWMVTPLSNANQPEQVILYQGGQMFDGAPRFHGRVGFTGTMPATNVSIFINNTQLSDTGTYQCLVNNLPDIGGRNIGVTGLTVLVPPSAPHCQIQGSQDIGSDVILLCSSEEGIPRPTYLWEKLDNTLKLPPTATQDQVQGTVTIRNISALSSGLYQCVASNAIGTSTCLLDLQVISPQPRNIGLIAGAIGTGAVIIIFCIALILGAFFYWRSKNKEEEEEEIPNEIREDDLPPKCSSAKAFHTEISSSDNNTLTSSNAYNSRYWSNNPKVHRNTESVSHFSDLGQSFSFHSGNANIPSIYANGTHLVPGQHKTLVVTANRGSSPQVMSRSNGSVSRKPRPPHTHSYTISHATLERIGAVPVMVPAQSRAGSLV
# From the text: as §1
# [4] = target: T2, extracellular domain (ECD) of human …; test: KinExA, Fab as CBP 15 pM, single binding curve
# Method: (§2) Solution-based binding affinities were determined using the Kinetic Exclusion Assay (KinExA) 4000 system as described below, where binding partners were combined and allowed to reach equilibrium prior to measurement.
# (§3) Briefly, anti-IGSF11 ABPs of the invention as Fabs were used as Constant Binding Partner (CBP) and human recombinant IGSF11 ECD was used as Titrant. After reaching equilibrium, free CBP were detected using PMMA beads coated with IGSF11 ECD or IGSF11 IgC2-domain Fc-fusion protein and an anti-human F(ab′)2 antibody conjugated with AlexaFluor647. […] The CBP was incubated with different Titrant concentrations for 16 h (or 72-90 h) to reach equilibrium. The equilibrium binding curves of different CBP concentrations were measured in duplicates and drift correction was applied. The n-curve analysis tool within the KinExA Pro Software version 4.4.26 was applied to obtain one KD value per set of binding curves by finding the best fit of a 1:1 binding model to the data.
# [5] = target: T3, human IGSF11 (VSIG3) expressed on cells; test: IgG FACS MDA-MB-231-IGSF11
# From the text: as §1
# [6] = target: T1, murine IGSF11 expressed on cells; test: IgG FACS MC38-IGSF11
# From the text: as §1
# [7] = target: T2, extracellular domain (ECD) of human …; test: KinExA, Fab as CBP 80 and 800 pM, n-curve
# Method: as §2, §3
binder,measurement,setting,value
B1,EC50,[1],< 0.5 nM
same,IC50 (read off the curve),[2],~0.7 nM
same,EC50,[3],< 0.5 nM
B2,Kd,[4],< 0.01 nM
B3,EC50,[5],< 0.5 nM
same,EC50,[6],< 0.5 nM
same,EC50,[3],< 0.5 nM
B4,Kd,[7],< 0.15 nM
